From article PMC1262730, “Purification and kinetic studies of recombinant gibberellin dioxygenases” (BMC Plant Biology, 2005) come the findings set out here.

Substrate in the data set: C=C1C[C@]23C[C@@]1(O)CC[C@H]2[C@@]12CCC[C@@](C)(C(=O)O1)[C@H]2[C@@H]3C(=O)O
As to the kind of experiment: tritiated water release from [3H3]GA20, Michaelis-Menten fit (Origin). Type of data set: biochemical, Arabidopsis thaliana. To be noted: labelled compound (possible tritium isotope effect), 4 mM 2-oxoglutarate, 0.5 mM FeSO4, 4 mM ascorbate, 4 mM DTT, BSA, catalase, 100 mM Tris-HCl pH 7.9, 30 °C.

B1: AtGA3OX4 (Arabidopsis thaliana) (protein)
chain: MPSLAEEICIGNLGSLQTLPESFTWKLTAADSLLRPSSAVSFDAVEESIPVIDLSNPDVTTLIGDASKTWGAFQIANHGISQKLLDDIESLSKTLFDMPSERKLEAASSDKGVSGYGEPRISPFFEKKMWSEGFTIADDSYRNHFNTLWPHDHTKYCGIIQEYVDEMEKLASRLLYCILGSLGVTVEDIEWAHKLEKSGSKVGRGAIRLNHYPVCPEPERAMGLAAHTDSTILTILHQSNTGGLQVFREESGWVTVEPAPGVLVVNIGDLFHILSNGKIPSVVHRAKVNHTRSRISIAYLWGGPAGDVQIAPISKLTGPAEPSLYRSITWKEYLQIKYEVFDKAMDAIRVVNPTN
notes: pET32 Xa/LIC N-terminal poly(His)-thioredoxin fusion expressed in E. coli BL21 (DE3), tag cut at engineered thrombin site, Superdex 75
By Km is commonly meant the concentration of substrate that gives half-maximal velocity. For the protein B1, the Km came out at 0.82 µM.
